B1: FEM1A (parent)
chain: PCCSSSPEEPLNGESYESCCPTSR

Variants of: B1
Assay: protein stability index of a GFP-peptide fusion (GPS, HEK-293T) (PSI 1-6); higher = more stable
Conditions: c terminus: a fixed tail appended
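Also: lentivirally expressed fusions sorted by FACS into six bins by GFP to DsRed ratio, PSI derived from sequencing read proportions per bin multiplied by bin number.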

Protein stability index of substitutions, site by site:
S6: N 3.81 | L 2.91 | Y 2.97 | G 3.53 | R 3.66 | W 3.27 | Q 4.11 | F 3.13 | T 3.93 | P 3.76 | I 3.7 | E 4.01 | M 3.57 | K 3.18 | V 3.8 | D 3.92 | H 3.4
L11: E 3.5 | C 3.54 | A 4.52 | S 3.84 | M 3.79 | F 3.75 | R 3.93 | N 4.57 | Q 3.86 | P 4.08 | I 3.72 | D 3.94 | W 2.82 | Y 3.55 | T 4.11 | V 4.2 | H 4.2 | K 3.77 | G 3.81
E14: S 3.14 | P 3.41 | G 2.24 | H 3.81 | Y 2.41 | M 2.99 | A 3.77 | I 2.88 | C 2.86 | D 3.77 | W 2.57 | F 2.71 | T 2.94 | R 3.62 | V 2.8 | L 3.01 | Q 3.33 | N 3.66 | K 2.9
P21: V 3.1 | Y 3.01 | H 3.71 | I 2.6 | T 3.76 | W 2.62 | Q 4.17 | L 3.51 | S 3.09 | G 3.78 | E 4.19 | R 4.13 | A 3.68 | N 3.81 | K 3.81 | F 3.04 | D 5 | M 2.28 | C 3.92
S15: K 3.68 | H 3.92 | R 3.51 | I 3.66 | L 3.07 | E 3.61 | P 4.14 | T 2.69 | Y 3.17 | F 2.63 | M 3.12 | N 3.62 | Q 3.52 | V 3.81 | D 4.61 | C 3.47 | G 3.88 | A 3.98 | W 2.85
P10: S 3.91 | I 3.6 | E 3.7 | A 4.07 | M 3.73 | H 3.46 | Q 3.65 | D 4.17 | F 3.5 | Y 3.14 | W 2.25 | C 3.46 | L 3.41 | V 3.73 | T 3.1 | R 3.82 | K 3.5 | N 2.96
E9: G 3.67 | W 2.02 | F 2.87 | H 3.67 | D 3.64 | Y 2.77 | P 3.36 | A 3.39 | K 3.41 | L 2.69 | T 3.34 | R 3.35 | M 2.69 | S 2.88 | Q 3.52 | C 3.21 | N 3.64 | I 3.33 | V 3.08
T22: K 3.79 | W 3.78 | M 3.45 | V 3.35 | I 3.38 | G 3.53 | L 3.66 | N 3.9 | D 4.61 | Q 4.21 | A 3.99 | F 3.36 | E 4.53 | P 3.13 | C 4.41 | H 3.37 | Y 3.5 | S 4.04 | R 3.09
C20: Q 3.54 | V 3.47 | W 3.69 | F 2.91 | R 4.08 | S 4.14 | G 3.25 | E 4.24 | T 3.91 | M 3.18 | N 4.35 | A 3.53 | K 3.31 | I 3.54 | H 3.32 | Y 3.38 | P 3.06 | D 4.12 | L 3.7
S18: V 3.45 | R 3.11 | C 4.24 | N 3.68 | F 2.89 | A 4.71 | Q 4.02 | T 4.19 | H 3.74 | Y 3.07 | K 3.64 | M 3.06 | E 4 | P 4 | D 4.23 | L 3.01 | I 3.03 | W 2.5
S23: Q 4.31 | H 3.6 | W 3.43 | M 4.05 | F 3.22 | I 3.53 | E 4.42 | V 3.07 | G 3.75 | N 4.1 | K 4.18 | C 4.2 | D 5 | T 4.13 | R 2.95 | L 3.86 | P 3.52 | A 4.35
G13: R 3.96 | W 2.79 | V 3.51 | S 3.75 | C 3.54 | Y 3.01 | N 3.46 | D 4.43 | F 3.26 | Q 4.43 | E 5.17 | A 4.14 | K 4.05 | L 3.63 | I 3.42 | P 4.01 | M 3.29 | T 3.75 | H 4.14
N12: T 3.89 | C 3.43 | I 4.22 | M 3.98 | G 3.88 | F 3.01 | L 4.04 | Y 3.96 | P 2.66 | A 3.71 | W 3.03 | Q 3.32 | K 2.97 | E 4.42 | R 3.48 | S 4.38 | D 4.86 | H 3.48 | V 3.58
E17: K 3.25 | W 1.72 | R 2.67 | N 3.37 | Y 2.52 | S 2.51 | P 3.7 | A 3.04 | V 2.87 | D 3.81 | M 3.44 | C 4.12 | H 3.44 | F 3.55 | L 2.37 | I 2.83 | G 3.43 | T 3.56
C19: T 3.56 | W 1.98 | F 3.76 | E 4.54 | K 4.25 | R 3.97 | H 3.57 | V 3.89 | D 4.5 | I 3.72 | P 4.08 | G 3.61 | Y 3.72 | N 3.67 | M 3.49 | S 4.11 | A 3.94 | L 3.28 | Q 4.09
E8: M 2.48 | K 2.69 | R 2.88 | V 2.38 | D 3.51 | P 3.47 | H 3.33 | L 2.81 | Q 3.4 | A 2.87 | C 3.45 | T 3.03 | Y 2.65 | F 2.37 | N 3.35 | W 1.63 | G 3.06 | I 3.06
P7: M 3.11 | Q 4.44 | Y 3.02 | K 3.65 | I 3.03 | A 3.34 | N 3.14 | E 3.93 | H 3.37 | D 4.65 | L 3.07 | G 3.38 | W 2.44 | T 3.29 | V 4.45 | S 3.62 | C 3.67 | F 3.51
Y16: R 3.35 | N 3.97 | C 4.27 | K 3.68 | I 3.73 | D 4.57 | G 3.9 | W 3.2 | Q 4.55 | E 4.69 | F 3.97 | A 3.55 | H 4.59 | M 3.83 | L 3.84 | V 4.35 | P 4.61 | S 3.7 | T 4.37

From the supplement of paper PMC10567573
